From publication PMC3711430

What was measured:
[1] = target: Xenopus FANCI (Xenopus laevis (endogenous in egg extracts)); test: co-depletion by immunodepletion; DNA-free Xenopus S-phase egg extracts; FANCD2 or FANCI antibody coupled to Sepharose 4B beads, 60 min on ice, one to two rounds; depleted extracts analysed by immunoblot
[2] = target: Xenopus FANCD2 (Xenopus laevis (endogenous in egg extracts)); test: as above

Row | percent co-depleted [1] | percent co-depleted [2] | Substance
1 | 80% |  | Xenopus FANCD2 (natural protein)
2 |  | 80% | Xenopus FANCI (natural protein)
